Assay results from article PMC7076219.

Experiments:
[1] = target: CD44/HCELL (hematopoietic cell E- and/or L-selectin ligand) (human (endogenous in KG1a)) (UniProt P16070); assay: SPR; Biacore T-100, CM5 chip, 25 °C; CD44/HCELL captured from KG1a lysate by immobilised Hermes-3; E-selectin proteins injected in sequential concentrations at 20 ul/min, 90 s each; running buffer 50 mM Tris pH 8.0, 1% Triton X-100, 50 mM NaCl, 1 mM CaCl2; isotype control subtracted; kon calculated from KD and koff
[2] = target: ligands on KG1a cells (human (endogenous in KG1a)); assay: flow cytometry on cells; KG1a cells stained with 10 ug/ml E-selectin protein in HBSS with 5% FBS and 2 mM CaCl2, 4 °C, 20 min; detected by Strep-tag II mAb and PE anti-mouse IgG1
[3] = target: E-S6-IgG (mouse E-selectin extracellular region fused to the Fc region of human IgG1, from silkworm) (mouse | human) (UniProt Q00690); assay: native gel or EMSA; purified E-selectin proteins in native PAGE sample buffer on a 10% TBE gel, Tris-glycine buffer, Coomassie stain

Sequence of CD44/HCELL (hematopoietic cell E- and/or L-selectin ligand) (human (endogenous in KG1a)) (P16070 other isoform, or with tags, fused parts or gaps): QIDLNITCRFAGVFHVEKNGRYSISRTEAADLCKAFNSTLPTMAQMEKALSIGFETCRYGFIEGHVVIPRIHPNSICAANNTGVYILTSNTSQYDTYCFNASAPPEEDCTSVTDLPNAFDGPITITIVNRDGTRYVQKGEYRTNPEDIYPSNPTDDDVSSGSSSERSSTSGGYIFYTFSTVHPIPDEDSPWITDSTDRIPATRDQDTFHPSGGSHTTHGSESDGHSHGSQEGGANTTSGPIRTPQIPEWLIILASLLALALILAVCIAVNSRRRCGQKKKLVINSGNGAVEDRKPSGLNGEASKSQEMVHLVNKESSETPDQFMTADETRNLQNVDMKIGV

| Substance | Kd [1] [µM] | kon [1] [M⁻¹ s⁻¹] | percent of the live KG1a population bound [2] [%] | fluorescence signal, fold lower than E-S6 [2] [fold] | fluorescence signal (geometric mean) [2] | stoichiometry N [3] |
| --- | --- | --- | --- | --- | --- | --- |
| E-S0 (mouse E-selectin lectin and EGF domains, no SCR domains) (domain or fragment) | 17.2 | 4 | 43 | – | – | – |
| E-S2 (truncated mouse E-selectin with only the first two SCR domains) (domain or fragment) | 5.68 | 30 | 76 | 3 | – | – |
| E-S2-A28H (E-S2 with the A28H mutation in the lectin domain) (domain or fragment) | 2.5 | 80 | 84 | 2 | 1690 | – |
| E-S6-IgG (mouse E-selectin extracellular region fused to the Fc region of human IgG1, from silkworm) (from UniProt Q00690 22-557) (Fc fusion) | 0.17 | 950 | 96 | – | – | 2 |
